Assay results as given in patent US20200283483A1 (TECHNISCHE UNIVERSITAET MUENCHEN, published 2020).
Square brackets hold non-standard residues; d marks the D form. dNMeF = CN[C@H](Cc1ccccc1)C(=O)O; NMeA = CN[C@@H](C)C(=O)O

What was measured:
human αvβ3-integrin = biological target: T1, human αvβ3-integrin (human, UniProt P06756 31-992; P05106 27-718); experiment: solid-phase competition ELISA, soluble αvβ3 on coated vitronectin
T1 construct: soluble integrin bought from R&D; also called integrin αvβ3

human αvβ5-integrin = biological target: T2, human αvβ5-integrin (human, UniProt P06756 31-992; P18084 24-719, limits assumed); experiment: solid-phase competition ELISA, soluble αvβ5 on coated vitronectin
T2 construct: soluble integrin bought from Millipore

human αvβ6-Integrin = biological target: T3, human αvβ6-Integrin (human, UniProt P06756 31-992; P18564 22-707); experiment: solid-phase competition ELISA, soluble αvβ6 on coated LAP (TGF-β)
T3 construct: soluble integrin bought from R&D
T3 sequence (P06756 31-992 limits assumed, chain 1 of 2): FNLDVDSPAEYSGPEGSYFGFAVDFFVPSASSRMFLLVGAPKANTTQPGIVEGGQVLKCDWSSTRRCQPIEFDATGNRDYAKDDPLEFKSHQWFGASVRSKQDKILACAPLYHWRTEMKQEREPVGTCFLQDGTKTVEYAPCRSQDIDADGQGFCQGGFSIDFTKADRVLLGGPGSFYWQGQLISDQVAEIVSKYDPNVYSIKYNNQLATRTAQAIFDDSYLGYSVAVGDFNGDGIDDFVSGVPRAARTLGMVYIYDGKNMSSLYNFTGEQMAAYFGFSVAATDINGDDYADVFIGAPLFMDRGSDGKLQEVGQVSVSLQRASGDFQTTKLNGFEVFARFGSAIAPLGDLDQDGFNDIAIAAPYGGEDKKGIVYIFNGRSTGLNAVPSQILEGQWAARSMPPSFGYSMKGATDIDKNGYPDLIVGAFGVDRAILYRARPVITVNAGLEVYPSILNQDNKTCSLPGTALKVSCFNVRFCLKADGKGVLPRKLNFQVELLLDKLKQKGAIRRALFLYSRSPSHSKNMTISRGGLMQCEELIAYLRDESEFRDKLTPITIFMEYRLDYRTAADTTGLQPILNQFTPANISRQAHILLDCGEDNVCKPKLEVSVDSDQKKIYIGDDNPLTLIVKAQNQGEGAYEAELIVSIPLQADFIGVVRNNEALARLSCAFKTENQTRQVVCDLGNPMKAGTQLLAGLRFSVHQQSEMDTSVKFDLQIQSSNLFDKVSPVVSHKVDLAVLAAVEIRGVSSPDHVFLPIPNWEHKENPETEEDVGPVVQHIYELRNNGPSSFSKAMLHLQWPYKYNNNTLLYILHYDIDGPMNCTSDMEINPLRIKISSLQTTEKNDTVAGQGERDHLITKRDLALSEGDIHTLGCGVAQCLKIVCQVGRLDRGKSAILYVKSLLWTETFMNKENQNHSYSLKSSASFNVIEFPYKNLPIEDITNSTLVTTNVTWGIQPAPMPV
T3 sequence (P18564 22-707 limits assumed, chain 2 of 2): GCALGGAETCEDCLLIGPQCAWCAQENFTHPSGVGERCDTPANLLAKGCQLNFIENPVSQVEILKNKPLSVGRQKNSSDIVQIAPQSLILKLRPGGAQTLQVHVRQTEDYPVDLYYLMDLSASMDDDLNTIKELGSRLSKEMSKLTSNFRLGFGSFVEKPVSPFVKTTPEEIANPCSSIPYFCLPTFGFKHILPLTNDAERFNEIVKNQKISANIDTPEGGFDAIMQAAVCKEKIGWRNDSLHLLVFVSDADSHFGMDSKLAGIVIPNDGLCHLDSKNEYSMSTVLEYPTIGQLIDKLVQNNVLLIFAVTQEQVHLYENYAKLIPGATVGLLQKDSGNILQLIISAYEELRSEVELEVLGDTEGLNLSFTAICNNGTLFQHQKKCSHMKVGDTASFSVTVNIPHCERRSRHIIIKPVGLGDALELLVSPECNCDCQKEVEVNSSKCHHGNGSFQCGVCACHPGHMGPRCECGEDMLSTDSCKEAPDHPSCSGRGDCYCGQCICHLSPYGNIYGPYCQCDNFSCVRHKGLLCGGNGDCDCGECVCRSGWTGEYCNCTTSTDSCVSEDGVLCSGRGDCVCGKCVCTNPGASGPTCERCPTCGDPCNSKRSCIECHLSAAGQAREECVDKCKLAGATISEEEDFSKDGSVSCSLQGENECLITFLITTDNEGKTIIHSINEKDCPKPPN

T1 sequence (P06756 31-992 limits assumed, chain 1 of 2): as the sequence (P06756 31-992 limits assumed, chain 1 of 2) above
T1 sequence (P05106 27-718 limits assumed, chain 2 of 2): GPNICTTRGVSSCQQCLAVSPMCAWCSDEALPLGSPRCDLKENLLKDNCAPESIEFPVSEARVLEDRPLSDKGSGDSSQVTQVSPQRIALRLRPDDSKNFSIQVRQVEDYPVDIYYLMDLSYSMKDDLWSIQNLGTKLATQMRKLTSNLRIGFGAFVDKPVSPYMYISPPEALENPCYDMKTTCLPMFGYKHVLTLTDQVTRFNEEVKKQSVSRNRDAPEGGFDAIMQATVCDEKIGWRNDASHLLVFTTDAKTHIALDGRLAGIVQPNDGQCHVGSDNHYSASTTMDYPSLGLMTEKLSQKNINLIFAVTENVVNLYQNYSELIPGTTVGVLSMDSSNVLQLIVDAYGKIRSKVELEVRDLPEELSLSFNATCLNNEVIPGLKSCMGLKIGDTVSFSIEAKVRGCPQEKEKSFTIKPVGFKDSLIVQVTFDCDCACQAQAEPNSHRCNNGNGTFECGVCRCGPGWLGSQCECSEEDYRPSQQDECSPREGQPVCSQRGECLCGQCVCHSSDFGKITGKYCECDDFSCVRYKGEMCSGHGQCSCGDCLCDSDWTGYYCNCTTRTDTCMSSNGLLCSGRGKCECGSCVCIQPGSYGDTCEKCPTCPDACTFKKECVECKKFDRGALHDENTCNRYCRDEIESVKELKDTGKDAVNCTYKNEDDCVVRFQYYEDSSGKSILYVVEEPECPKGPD
T2 sequence (P06756 31-992 limits assumed, chain 1 of 2): as the sequence (P06756 31-992 limits assumed, chain 1 of 2) above
T2 sequence (P18084 24-719 limits assumed, chain 2 of 2): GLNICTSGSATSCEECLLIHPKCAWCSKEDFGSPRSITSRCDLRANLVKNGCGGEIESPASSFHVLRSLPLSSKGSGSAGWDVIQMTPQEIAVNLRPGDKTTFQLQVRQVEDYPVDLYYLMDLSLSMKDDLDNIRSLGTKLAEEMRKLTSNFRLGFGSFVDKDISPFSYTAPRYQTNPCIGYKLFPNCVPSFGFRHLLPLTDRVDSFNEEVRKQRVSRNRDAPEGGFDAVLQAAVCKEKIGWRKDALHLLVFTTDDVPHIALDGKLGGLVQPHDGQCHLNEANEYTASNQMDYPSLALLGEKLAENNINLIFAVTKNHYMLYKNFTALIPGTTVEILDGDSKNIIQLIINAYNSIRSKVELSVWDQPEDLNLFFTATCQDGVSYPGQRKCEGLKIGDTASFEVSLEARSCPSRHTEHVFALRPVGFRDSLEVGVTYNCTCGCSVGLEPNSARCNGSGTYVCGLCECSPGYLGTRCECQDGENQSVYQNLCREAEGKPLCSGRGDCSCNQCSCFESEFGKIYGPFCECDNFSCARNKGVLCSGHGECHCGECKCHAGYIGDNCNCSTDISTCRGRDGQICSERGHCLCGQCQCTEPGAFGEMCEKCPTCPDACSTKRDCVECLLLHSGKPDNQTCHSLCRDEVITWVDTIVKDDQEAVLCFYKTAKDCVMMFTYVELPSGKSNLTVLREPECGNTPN

## cyclo([dNMeF]RGDA[NMeA]) (scaffold NMe(1,6)) [peptide #30 c(*fRGDA*A)]
Human αvβ3-integrin
  IC50: 0.6 nM
Human αvβ5-integrin
  IC50: 145 nM
Human αvβ6-Integrin
  IC50: 120 nM
